Test results reported in the Human Domainome abundance scans (Beltran et al. 2025).
± gives the uncertainty stated by the source.

B1: Neutrophil cytosol factor 2, residues 456 to 514; numbered along this chain, P19878 (parent)
chain: LKKGSQVEALFSYEATQPEDLEFQEGDIILVLSKVNEEWLEGECKGKVGIFPKVFVEDC

Variants of: B1
Experiment: abundance fitness (aPCA) (normalised: wild type 0, dead -1); higher = more abundant; growth selection in yeast, the domain comes from the species named
Details: Homo sapiens

| Variant | abundance fitness |
| --- | --- |
| LKKGSQVEALFSYEATQPEDDEFQEGDIILVLSKVNEEWLEGECKGKVGIFPKVFVEDC | -0.323 ± 0.12 |
| LKKGSQVEALFSYEATQPEDVEFQEGDIILVLSKVNEEWLEGECKGKVGIFPKVFVEDC | -0.225 ± 0.11 |
| LKKGSQVEALFSYEATQPEDIEFQEGDIILVLSKVNEEWLEGECKGKVGIFPKVFVEDC | -0.184 ± 0.11 |
| LKKGSQVEALFSYEATQPEDREFQEGDIILVLSKVNEEWLEGECKGKVGIFPKVFVEDC | -0.67 ± 0.15 |
| LKKGSQVEALFSYEATQPEDPEFQEGDIILVLSKVNEEWLEGECKGKVGIFPKVFVEDC | -0.529 ± 0.2 |
| LKKGSQVEALFSYEATQPEDNEFQEGDIILVLSKVNEEWLEGECKGKVGIFPKVFVEDC | -0.538 ± 0.17 |
| LKKGSQVEALFSYEATQPEDAEFQEGDIILVLSKVNEEWLEGECKGKVGIFPKVFVEDC | -0.565 ± 0.14 |
| LKKGSQVEALFSYEATQPEDCEFQEGDIILVLSKVNEEWLEGECKGKVGIFPKVFVEDC | -0.585 ± 0.14 |
| LKKGSQVEALFSYEATQPEDTEFQEGDIILVLSKVNEEWLEGECKGKVGIFPKVFVEDC | -0.392 ± 0.15 |
| LKKGSQVEALFSYEATQPEDYEFQEGDIILVLSKVNEEWLEGECKGKVGIFPKVFVEDC | -0.721 ± 0.15 |
| LKKGSQVEALFSYEATQPEDSEFQEGDIILVLSKVNEEWLEGECKGKVGIFPKVFVEDC | -0.522 ± 0.12 |
| LKKGSQVEALFSYEATQPEDHEFQEGDIILVLSKVNEEWLEGECKGKVGIFPKVFVEDC | -0.483 ± 0.19 |
| LKKGSQVEALFSYEATQPEDMEFQEGDIILVLSKVNEEWLEGECKGKVGIFPKVFVEDC | -0.509 ± 0.29 |
| LKKGSQVEALFSYEATQPEDGEFQEGDIILVLSKVNEEWLEGECKGKVGIFPKVFVEDC | -0.369 ± 0.094 |
| LKKGSQVEALFSYEATQPEDWEFQEGDIILVLSKVNEEWLEGECKGKVGIFPKVFVEDC | -0.457 ± 0.2 |
| LKKGSQVEALFSYEATQPEDLENQEGDIILVLSKVNEEWLEGECKGKVGIFPKVFVEDC | -0.381 ± 0.16 |
| LKKGSQVEALFSYEATQPEDLEDQEGDIILVLSKVNEEWLEGECKGKVGIFPKVFVEDC | -0.527 ± 0.14 |
| LKKGSQVEALFSYEATQPEDLEKQEGDIILVLSKVNEEWLEGECKGKVGIFPKVFVEDC | -0.048 ± 0.32 |
| LKKGSQVEALFSYEATQPEDLEHQEGDIILVLSKVNEEWLEGECKGKVGIFPKVFVEDC | -0.117 ± 0.15 |
| LKKGSQVEALFSYEATQPEDLERQEGDIILVLSKVNEEWLEGECKGKVGIFPKVFVEDC | -0.223 ± 0.12 |
| LKKGSQVEALFSYEATQPEDLEMQEGDIILVLSKVNEEWLEGECKGKVGIFPKVFVEDC | -0.098 ± 0.21 |
| LKKGSQVEALFSYEATQPEDLEAQEGDIILVLSKVNEEWLEGECKGKVGIFPKVFVEDC | -0.333 ± 0.2 |
| LKKGSQVEALFSYEATQPEDLECQEGDIILVLSKVNEEWLEGECKGKVGIFPKVFVEDC | -0.218 ± 0.11 |

| Variant | abundance fitness |
| --- | --- |
| LKKGSQVEALFSYEATQPEDLEGQEGDIILVLSKVNEEWLEGECKGKVGIFPKVFVEDC | -0.198 ± 0.13 |
| LKKGSQVEALFSYEATQPEDLEPQEGDIILVLSKVNEEWLEGECKGKVGIFPKVFVEDC | -0.848 ± 0.35 |
| LKKGSQVEALFSYEATQPEDLEIQEGDIILVLSKVNEEWLEGECKGKVGIFPKVFVEDC | -0.374 ± 0.13 |
| LKKGSQVEALFSYEATQPEDLEQQEGDIILVLSKVNEEWLEGECKGKVGIFPKVFVEDC | 0.047 ± 0.35 |
| LKKGSQVEALFSYEATQPEDLEEQEGDIILVLSKVNEEWLEGECKGKVGIFPKVFVEDC | -0.023 ± 0.29 |
| LKKGSQVEALFSYEATQPEDLKFQEGDIILVLSKVNEEWLEGECKGKVGIFPKVFVEDC | -0.473 ± 0.37 |
| LKKGSQVEALFSYEATQPEDLNFQEGDIILVLSKVNEEWLEGECKGKVGIFPKVFVEDC | -0.654 ± 0.2 |
| LKKGSQVEALFSYEATQPEDLDFQEGDIILVLSKVNEEWLEGECKGKVGIFPKVFVEDC | -0.602 ± 0.16 |
| LKKGSQVEALFSYEATQPEDLLFQEGDIILVLSKVNEEWLEGECKGKVGIFPKVFVEDC | -0.256 ± 0.13 |
| LKKGSQVEALFSYEATQPEDLQFQEGDIILVLSKVNEEWLEGECKGKVGIFPKVFVEDC | 0.395 ± 0.46 |
| LKKGSQVEALFSYEATQPEDLFFQEGDIILVLSKVNEEWLEGECKGKVGIFPKVFVEDC | -0.55 ± 0.15 |
| LKKGSQVEALFSYEATQPEDLPFQEGDIILVLSKVNEEWLEGECKGKVGIFPKVFVEDC | -0.225 ± 0.21 |
| LKKGSQVEALFSYEATQPEDLCFQEGDIILVLSKVNEEWLEGECKGKVGIFPKVFVEDC | -0.627 ± 0.14 |
| LKKGSQVEALFSYEATQPEDLYFQEGDIILVLSKVNEEWLEGECKGKVGIFPKVFVEDC | -0.565 ± 0.14 |
| LKKGSQVEALFSYEATQPEDLWFQEGDIILVLSKVNEEWLEGECKGKVGIFPKVFVEDC | -0.787 ± 0.25 |
| LKKGSQVEALFSYEATQPEDLSFQEGDIILVLSKVNEEWLEGECKGKVGIFPKVFVEDC | 0.284 ± 0.068 |
| LKKGSQVEALFSYEATQPEDLHFQEGDIILVLSKVNEEWLEGECKGKVGIFPKVFVEDC | -0.191 ± 0.22 |
| LKKGSQVEALFSYEATQPEDLIFQEGDIILVLSKVNEEWLEGECKGKVGIFPKVFVEDC | -0.795 ± 0.26 |
| LKKGSQVEALFSYEATQPEDLTFQEGDIILVLSKVNEEWLEGECKGKVGIFPKVFVEDC | -0.24 ± 0.24 |
| LKKGSQVEALFSYEATQPEDLVFQEGDIILVLSKVNEEWLEGECKGKVGIFPKVFVEDC | -0.389 ± 0.12 |
| LKKGSQVEALFSYEATQPEDLRFQEGDIILVLSKVNEEWLEGECKGKVGIFPKVFVEDC | -0.368 ± 0.15 |
| LKKGSQVEALFSYEATQPEDLAFQEGDIILVLSKVNEEWLEGECKGKVGIFPKVFVEDC | 0.103 ± 0.11 |
